# Assay results from publication PMC4376777 (PLoS Pathogens, 2015).
# T1: GST–PPM1A (human, UniProt P35813-1 1-382)
# T1 construct: also called GST–PPM1A-WT; purified PPM1A
# T1 sequence (looked up): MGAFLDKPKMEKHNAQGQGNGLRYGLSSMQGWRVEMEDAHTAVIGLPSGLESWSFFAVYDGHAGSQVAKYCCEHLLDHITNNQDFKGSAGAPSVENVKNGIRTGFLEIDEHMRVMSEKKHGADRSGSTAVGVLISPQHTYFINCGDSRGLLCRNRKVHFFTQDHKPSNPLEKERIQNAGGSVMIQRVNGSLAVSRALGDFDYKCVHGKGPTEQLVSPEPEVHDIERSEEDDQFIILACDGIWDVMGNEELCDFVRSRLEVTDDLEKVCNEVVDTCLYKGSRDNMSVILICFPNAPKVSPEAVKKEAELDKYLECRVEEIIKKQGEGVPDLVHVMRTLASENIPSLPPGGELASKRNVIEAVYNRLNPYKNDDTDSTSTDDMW
# B1: His–STING (amino acids 153–379) (domain or fragment, human, UniProt Q86WV6 153-379, looked up)
# chain: FNVAHGLAWSYYIGYLRLILPELQARIRTYNQHYNNLLRGAVSQRLYILLPLDCGVPDNLSMADPNIRFLDKLPQQTGDHAGIKDRVYSNSIYELLENGQRAGTCVLEYATPLQTLFAMSQYSQAGFSREDRLEQAKLFCRTLEDILADAPESQNNCRLIAYQEPADDSSFSLSQEVLRHLRQEEKEEVTVGSLKTSAVPSTSTMSQEPELLISGMEKPLPLRTDFS
# Molecular target: T1, GST–PPM1A
# Test: pull-down; 1 μg of each purified protein incubated with glutathione–Sepharose beads at 4°C overnight; washed with 50 mM Tris-HCl pH 7.5, 200 mM NaCl, 10% glycerol, 0.1% Triton X-100; immunoblot
# Conditions: both partners purified
binder,measurement,value
B1,binding result,binds
